Blank lines part the entries; values can stand above or below the molecule they belong to.
System: 47× CAG RNA
Experiment: In vitro RNA phase separation/gelation assay (fluorescence micrographs, index of dispersion)
Format: biochemical
Conditions: proteinase K 60 U/mL, DNase I 200 U/mL, RNaseA 0.7 U/mL; 10 minutes, room temperature
Experimental: For phase separation/gelation assays, RNAs were diluted to concentrations of 0.5 ng/μL to 0.5 μg/μL in 10 mM Tris pH 7.0, 10 mM MgCl2, 25 mM NaCl buffer, unless indicated otherwise. Nuclease-free buffer stocks were purchased from Ambion. RNA was denatured at 95° C. for 3 minutes and cooled down at 1-4° C. per minute to 37° C. final temperature in a thermocycler and imaged immediately. Samples were visualized using a custom spinning disk confocal microscope (Nikon Ti-Eclipse equipped with a Yokogawa CSU-X spinning disk module) using a×100, 1.49 numerical aperture oil immersion objective and an air-cooled EM-CCD (electron multiplying charge-coupled device). The extent of phase separation/gelation was quantified by the index of dispersion (σ^2/μ) of fluorescence intensity per pixel (pixel size 83 nm×83 nm). Briefly, variance in the fluorescence intensity per image was determined, and normalized to the mean fluorescence intensity in the solution phase of the RNA. For dilute solution (<10% of imaging area occupied with clusters), this parameter reports the extent of inhomogeneity in the sample. At least 20 independent imaging areas (about 1,800 μm^2 each) were analyzed for each condition to achieve a representative measure across the sample. Each datum point in the bar graphs represents one imaging area. […]

dissolution of 47× CAG RNA clusters by enzyme treatment: dissolved
B1: RNase A: ribonuclease enzyme (protein, UniProt P61823 27-150, looked up)
Ribonuclease pancreatic: KETAAAKFERQHMDSSTSAASSSNYCNQMMKSRNLTKDRCKPVNTFVHESLADVQAVCSQKNVACKNGQTNCYQSYSTMSITDCRETGSSKYPNCAYKTTQANKHIIVACEGNPYVPVHFDASV

dissolution of 47× CAG RNA clusters by enzyme treatment: not
B2: proteinase K: protease enzyme (protein, UniProt P06873 106-384, looked up)
Proteinase K: AAQTNAPWGLARISSTSPGTSTYYYDESAGQGSCVYVIDTGIEASHPEFEGRAQMVKTYYYSSRDGNGHGTHCAGTVGSRTYGVAKKTQLFGVKVLDDNGSGQYSTIIAGMDFVASDKNNRNCPKGVVASLSLGGGYSSSVNSAAARLQSSGVMVAVAAGNNNADARNYSPASEPSVCTVGASDRYDRRSSFSNYGSVLDIFGPGTSILSTWIGGSTRSISGTSMATPHVAGLAAYLMTLGKTTAASACRYIADTANKGDLSNIPFGTVNLLAYNNYQA

Source: patent US20190218613A1, “METHODS OF DETECTING THE FORMATION OF CELLULAR CLUSTERS OF RNA” (The Regents of the University of California, priority 2017, published 2019)
